Assay results: patent US20250090663A1 (published 2025)

T1: CD70 (antigen of the Carterra KD analysis) (UniProt P32970 39-193)
T1 chain: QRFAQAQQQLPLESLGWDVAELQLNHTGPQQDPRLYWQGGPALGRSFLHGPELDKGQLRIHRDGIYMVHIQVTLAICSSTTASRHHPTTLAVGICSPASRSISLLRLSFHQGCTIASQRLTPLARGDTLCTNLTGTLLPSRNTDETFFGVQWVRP

B1: CD70 (ligand)
chain: T1 chain
B2: C1-Fc (anti-CD70 VHH-Fc fusion polypeptide) (Fc fusion)
chain: QVQLQESGGGLVQTGGSLRLACTASGFTFDDYAIAWFRQAPGKEREFVAAISWSGGTTHYADSVKGRFTISRDNAKNTLYLQMSSLKPEDTAVYFCAKSLRSSPSSRWFGSRGQGTQVTVSS
B3: H1-Fc (anti-CD70 VHH-Fc fusion polypeptide) (Fc fusion)
chain: QVQLQESGGGLVQAGGSLRLSCAAPRSIFSINAMGWYRQAPGKQRELVAAITSGGSPTYADSVKGRFTISRDNAKNTVYLQMNSLKAEDTAVYYCATGPYGLDNALDAWGQGTQVTVSS

Assays:
Assay in all cases: SPR (Carterra); apparent Kd
Positive Control (1C8) = target: Positive Control (1C8)
Positive Control (8G1) = target: Positive Control (8G1)
Positive Control (27B3) = target: Positive Control (27B3)
[1] = target: T1, CD70 (antigen of the Carterra KD …)

Binder | Kd (Positive Control (1C8)) [nM] | Kd (Positive Control (8G1)) [nM] | Kd (Positive Control (27B3)) [nM] | Kd [1] [nM]
B1 | 0.652 | 2.19 | 0.634 | –
B2 | – | – | – | 23.4
B3 | – | – | – | 2.73
